In one data set the target is T1, human IGF-IR (Homo sapiens, UniProt P08069).
T1 construct: The extracellular domain of human IGF-IR (aa 1-932) was cloned into a mammalian expression vector; made in house
The experiment in a line: Surface plasmon resonance (BIAcore) binding kinetics and affinity on immobilized IGF-IR. The protocol: The binding kinetics of fibronectin-based scaffold proteins binding proteins to the target was measured using BIAcore 2000 or 3000 biosensors (Pharmacia Biosensor). A capture assay was developed utilizing an IGF-IR-Fc fusion. A similar reagent had been described by Forbes et al. (Forbes et al. 2002, European J. Biochemistry, 269, 961-968). The extracellular domain of human IGF-IR (aa 1-932) was cloned into a mammalian expression vector containing the hinge and constant regions of human IgG1. Transient transfection of the plasmid produced a fusion protein, IGF-IR-Fc which was subsequently purified by Protein A chromatography and captured on Protein A immobilized on Biasensor CM5 chips by amine coupling. The kinetic analysis involved the capture of IGF-IR-Fc on Protein A followed by injection of the fibronectin-based scaffold protein in solution and regeneration of the Protein A surface by glycine pH 2.0. Sensorgrams were obtained at each concentration and were evaluated using a program Biaevaluation, BIA Evaluation 2.0 (BIAcore), to determine the rate constants ka (kon) and kd (koff) The dissociation constant, KD was calculated from the ratio of rate constants koff/kon. Typically, a concentration series (2 uM to 0 uM) of purified fibronectin-based scaffold protein was evaluated for binding to protein A captured human IGF-IR-Fc fusion protein.
(Surface plasmon resonance follows binding to a sensor surface in real time, without labels.)

Data set [1] has as its system human plasmacytoma cell line NCI-H929. Put plainly: NCI-H929 cell proliferation assay (serum mediated proliferation). As to conditions: at all concentrations tested. Type of data set: cell-based. The protocol: The human plasmacytoma cell line NCI-H929 (ATCC, Manassas, Va.) was plated in 96 well plates at a concentration of either 10000 or 25000 cells per well in DMEM (Invitrogen, Carlsbad, Calif.) containing 10% fetal bovine serum (Hyclone, Logan, Utah) containing various concentrations of IGF-IR antagonists. Cells were allowed to proliferate for 72 hours at 37° C., 5% CO2. After the proliferation period, cells were exposed to 20 μL of Cell Titer 96 Aqueous Proliferation Reagent (Promega, Madison, Wis.) and allowed to incubate for an additional four hours. Absorbance at 490 nm was measured on a Spectramax Plus 384 (Molecular Devices, Sunnyvale, Calif.), and the resulting data were analyzed using SigmaPlot (Systat Software, Point Richmond, Calif.).

The next data set relates to RH41 sarcoma xenografts. The experiment in a line: In vivo antitumor activity in RH41 sarcoma xenografts. As to conditions: 40 mg/kg, TIWx3, 20 ip. The protocol: *Tumor growth inhibition and probability values calculated on day 39. ^aVehicle was 80% PEG400, 20% dH2O. ^bVehicle was PBS. ^cAverage weight change for each group is the mean difference between weight at the start of treatment (Day 20) and after the end of treatment (Day 42). TVDT was calculated for a size of 500 mg Abbreviations used are as follows: po, oral route; ip, intraperitoneal route; LCK, gross log cell kill calculated as LCK=T−C/(3.32×TVDT) where T-C is the difference in time in days for the treated tumors (T) to reach a predetermined size (tumor target size) relative to the vehicle control group (C) divided by the tumor volume doubling time (TVDT) multiplied by 3.32.
Tumors were propagated in nude mice. Tumor passages occurred every four weeks for human RH41 xenografts. With regard to efficacy testing human tumor xenografts were implanted in nude mice. All tumor passages were subcutaneous (sc).
Antitumor activity was evaluated in terms of: a) cures, and for the murine tumor models, increases in lifespan reflected by the relative median survival time (MST) of treated (T) versus control (C) groups (i.e. % T/C values); and b) primary tumor growth inhibition determined by calculating the relative median times for T and C mice to grow tumors of a predetermined “target” size (1 gm for all sc tumor models described) and expressed as T-C values, in days. The definition of a cured mouse was one whose tumor was undetectable, or <35 mg, when assessed more than 10 tumor volume doubling times (TVDTs) post-treatment. The activity criterion for tumor inhibition/reduction was a statistically significant delay in primary tumor growth consistent with 1 gross log cell kill (LCK). The following formula was employed to calculate LCK: LCK=T−C/(3.32×TVDT)
Where, TVDT=median time (days) for control tumors to reach target size—median time (days) for control tumors to reach half the target size. […] The maximum tolerated dose (MTD) is defined as the dose level immediately […] which excessive toxicity (i.e. more than one death) occurred. […] Statistical evaluations of data were performed using Gehan's generalized Wilcoxon test (Gehan, Biometrika 52:203-223, 1965). Western Blot Analysis of 385A08-Fc

The target of another data set is T2, human insulin receptor (Homo sapiens, UniProt P06213).
T2 construct: purchased R&D Systems (Minneapolis, Minn.)
The experiment in a line: BIAcore binding to immobilized human insulin receptor. As to conditions: percentage of signal for insulin binding at similar concentration. The protocol:
One liter E. coli growths of selected optimized clones were prepared and the proteins were purified.
In brief, 60 ug/mL of IR diluted in acetate 4.5 was coupled/immobilized to a level of 8300 RU and 11.9 ug/mL of VEGF-R2-Fc diluted in acetate 5.0 was immobilized to a level of 9700 RU on flow cells 2 and 3. A blank reference surface was prepared on FC1. […] Fibronectin-based scaffold proteins were diluted to 10 uM in HBS-EP (10 mM Hepes 150 mM NaCl 3 mM EDTA 0.05% Surfactant P20) and injected at 20 uL/min for 3 minutes over the flow cells at 25 C and dissociation was observed over 10 mins.

The nature of data set [2]: Differential scanning calorimetry (thermal stability, Tm). As to conditions: DSC (FIG. 8). Format: physicochemical. The protocol: Differential Scanning calorimetry (DSC) analysis of midscaled clones was performed to determine thermal stability. A 1 mg/ml solution of appropriate clone was scanned in a N-DSC II calorimeter (calorimetry Sciences Corp) by ramping the temperature from 5° C. to 95° C. at a rate of 1 degree per minute under 3 atm pressure. The data was analyzed vs. a control run of the appropriate buffer using a best fit using Orgin Software (OrginLab Corp).
(In general: In DSC, transitions show as peaks or steps in heat flow.)

The nature of data set [3]: Size-exclusion chromatography (solution properties, monomericity). Type of data set: physicochemical. The protocol:
Size-exclusion chromatography (SEC) was performed using a TSKgel Super SW2000 column (TOSOH Biosciences, LLC), 4.6 mm×30 cm, on an Agilent 1100 HPLC system with UV detection at A214 nm and A280 nm and with fluorescence detection (excitation=280 nm, emission=350 nm). A buffer of 100 mM sodium sulfate, 100 mM sodium phosphate, 150 mM sodium chloride, pH 6.8 at a flow rate of 100 μL/min was employed. Samples (0.1 to 1 μg each) at a concentration of approximately 100 μg/mL were injected separately. Gel filtration standards (Bio-Rad Laboratories, Hercules, Calif.) were used for molecular weight calibration.
Background: SEC sorts molecules by how far they enter the pores of the column.

In data set [4] the test system is human pancreatic adenocarcinoma cell line BxPC-3. Put plainly: Cell mitogenesis assay: IGF-I-mediated proliferation, 3H-thymidine. Type of data set: cell-based. As to conditions: IGF-I-dependent proliferation, BxPC-3, 24 hour IGF-I exposure. The protocol: The purified, optimized IGF-IR clones were evaluated in cell-based assays in order to confirm activity.
The human pancreatic adenocarcinoma cell line BxPC-3 (ATCC, Manassas, Va.) was plated in 96 well plates at a concentration of 2500 cells per well in RPMI 1640 (Invitrogen, Carlsbad, Calif.) containing 10% fetal bovine serum (Hyclone, Logan, Utah). The following day, cells were washed in starvation medium consisting of RPMI 1640 containing 0.1% BSA (Sigma, St. Louis, Mo.). Washed cells were pre-incubated for four hours in starvation medium containing various concentrations of each IGF-IR antagonist. […] For the final four hours of incubation, cells were exposed to [^3H]-Thymidine (0.25 μCi/well; Perkin Elmer, Wellesley, Mass.). After the incubation period, cells were washed in PBS, lysed in 100 μL buffer consisting of 0.1% SDS+0.5 N NaOH, and counted on a TopCount NXT Scintillation Counter (Perkin Elmer, Wellesley, Mass.). The data were analyzed using SigmaPlot (Systat Software, Point Richmond, Calif.).

The mark [5] stands for this setting: Table 4, optimized 218C04 clones.

B1: 385A08-PEG20-385A08: two 385A08 (SEQ ID NO: 203) domains coupled via Cys97 to a linear 20 kDa bifunctional PEG (conjugate)
chain 1: GVSDVPRDLEVVAATPTSLLISWSARLKVARYYRITYGETGGNSPVQEFTVPKNVYTATISGLKPGVDYTITVYAVTRFRDYQPISINYRTEIDKPCQ
chain 2: GVSDVPRDLEVVAATPTSLLISWSARLKVARYYRITYGETGGNSPVQEFTVPKNVYTATISGLKPGVDYTITVYAVTRFRDYQPISINYRTEIDKPCQ
modifications: 20 kDa bifunctional PEG via Cys97
For B1, in the data set with human IGF-IR, the “faster on-rate (ka) relative to unmodified 385A08” value was “approximately two-fold” and the “off-rate (kd) relative to unmodified 385A08” value is listed as “slightly decreased”. Besides, in the data set with human IGF-IR (Table 10, PEGylated variants), the ka was 15 1/M*s × 10^+6 and the kd was 0.9 1/s × 10^−4. Besides, the “inhibition of cell growth” value in data set [1] is given as “approximately 100%”. Besides, the “Outcome by (% TGI)” value in the data set with RH41 sarcoma xenografts is recorded as “A (A % TGI value of >50% was considered active)”. In the data set on RH41 sarcoma xenografts (calculated on day 39), the “% TGI” value is recorded as 66%. Also, in the data set on RH41 sarcoma xenografts (gross log cell kill), the LCK is recorded as 0.6.

B2: 338A06 (protein)
chain: VSDVPRDLEVVAATPTSLLISWSARLKVARYYRITYGETGGNSPVQEFTVPKNVYTATISGLKPGVDYTITVYAVTKMRDYRPISINYRT
For the molecule B2, in the data set with human IGF-IR (setting [5]), binding was put at a Kd of 0.069 nM, the ka is on record as 2.2 1/M*s × 10^+6 and the kd is reported as 4.3 1/s × 10^−4. Besides, in the data set with human insulin receptor (Table 5), the “% IR Binding at 10 μM” value came to 2%. Also, in the data set with human insulin receptor (Table 8), the “% IR Binding at 10 μM” value came to 0%. Besides, the “unfolding temperature (Tm)” value in data set [2] is 62 °C. Further, the “solution behaviour by SEC (monomer / aggregation)” value in data set [3] was “monomeric behavior”. This molecule also gave an IC50 in data set [4] of 10 to 20 nM.

As a reminder, the Kd is a measure of binding affinity in units of concentration. One may read the IC50 as the concentration at which inhibition is half-maximal.

Values taken from patent US11149077B2, “Targeted therapeutics based on engineered proteins for tyrosine kinases receptors, including IGF-IR” (BRISTOL-MYERS SQUIBB COMPANY, priority 2006, dated 2021).
